Two molecules from article PMC7566476, “MYB61 is regulated by GRF4 and promotes nitrogen utilization and biomass production in rice” can be followed below.

The target of data set [1] is T1, GST-GRF4 (UniProt Q6ZIK5).
T1 sequence: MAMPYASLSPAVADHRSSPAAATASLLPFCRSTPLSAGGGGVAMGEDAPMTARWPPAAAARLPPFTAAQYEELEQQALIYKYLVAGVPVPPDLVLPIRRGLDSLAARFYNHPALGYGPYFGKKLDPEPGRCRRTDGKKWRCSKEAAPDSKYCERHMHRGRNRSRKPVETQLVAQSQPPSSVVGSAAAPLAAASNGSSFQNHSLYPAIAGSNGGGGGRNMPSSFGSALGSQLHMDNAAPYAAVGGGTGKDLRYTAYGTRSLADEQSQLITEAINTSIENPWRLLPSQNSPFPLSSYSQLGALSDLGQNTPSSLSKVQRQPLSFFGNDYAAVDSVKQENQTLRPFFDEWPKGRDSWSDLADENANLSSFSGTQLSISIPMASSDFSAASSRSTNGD
Briefly: EMSA. The note with it: EMSA binding buffer (Beyotime; composition, salt and pH not given), 4 °C; unlabeled competitor 50-, 100- and 500-fold. (Mobility shift assays separate free from complexed probe on a gel.)

Data set [2] addresses T2, GST-GRF4 (UniProt Q6ZIK5 1-394).
T2 sequence: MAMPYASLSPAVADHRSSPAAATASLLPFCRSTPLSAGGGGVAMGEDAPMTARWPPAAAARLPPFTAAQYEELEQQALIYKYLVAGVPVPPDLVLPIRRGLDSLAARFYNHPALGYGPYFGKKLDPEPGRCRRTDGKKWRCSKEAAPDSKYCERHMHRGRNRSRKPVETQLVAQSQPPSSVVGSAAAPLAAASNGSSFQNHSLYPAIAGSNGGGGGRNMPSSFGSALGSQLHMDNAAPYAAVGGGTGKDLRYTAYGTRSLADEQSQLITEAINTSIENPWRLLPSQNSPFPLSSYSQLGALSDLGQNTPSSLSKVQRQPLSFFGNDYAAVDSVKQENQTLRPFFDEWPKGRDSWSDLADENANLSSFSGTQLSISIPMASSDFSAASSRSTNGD
Nature of the data set: EMSA; EMSA binding buffer (Beyotime; composition, salt and pH not given), 4 °C; unlabeled competitor 50-, 100- and 500-fold. The note with it: protein: recombinant; tags: N-terminal GST (pGEX-6P-1); label: biotin; blunt.

“AATCTGTGCTCCAATCCAAGAAGATCATCTCTGGCACCTCTCAAGATGCTAAGCAATCAGCTGTGAGAACCAGGCCTATGCTGATGATTGCTTTTGCAGAGTTACAAACAGCATGATTTCCTCACTGGCCGTATTCTCGCTCAGAAGCAAATCCCAAT (double strand) [MYB61 promoter P1 fragment]”: the binding entry with GST-GRF4 [1] is given as “no binding”.

B1: MYB61 promoter motif 2 probe (within P8) (dsDNA)
DNA 1: CAAAAAGGCTGCGGTAATTAAGTCACAGTA
DNA 2: TACTGTGACTTAATTACCGCAGCCTTTTTG
Turning to B1, the binding result in the data set with GST-GRF4 [2] was “binds”.
